Experimental data published in patent publication US20260098102A1 (NATIONAL UNIVERSITY CORPORATION KOBE UNIVERSITY, published 2026).
Values belong to the binder of their own block, whether it stands above or below them.

Key:
SIRPA_V1_IgV = biological target: T1, SIRPA_V1_IgV (human, UniProt P78324 31-149); assay: SPR Biacore T200, antibody captured on anti-human IgG (Fc), SIRPA_V1_IgV as analyte (0.25 to 16 nM), 1:1 model
T1 construct: Secreted recombinant protein from FreeStyle 293F cells
Procedure: (§1) The dissociation constants were measured by a capture method comprising capturing each antibody as a ligand to an Anti-Human IgG (Fc) antibody immobilized using Human Antibody Capture Kit (GE Healthcare Bioscience Corp.) and measuring an antigen as an analyte, using Biacore T200 (GE Healthcare Bioscience Corp.). HBS-EP+ (GE Healthcare Bioscience Corp.) was used as a running buffer, and CM5 (GE Healthcare Bioscience Corp.) was used as a sensor chip. Onto the chip, 2 μg/mL of various antibodies were added at 10 μL/min for 30 seconds, then a serially diluted solution (0.25 to 16 nM) of the human SIRPA protein as an antigen was added at a flow rate of 30 μL/min for 120 seconds, and subsequently the dissociation phase for 600 seconds was monitored. As a regenerant, 3 M magnesium chloride (GE Healthcare Bioscience Corp.) was added at a flow rate of 20 μL/min for 30 seconds. For data analysis, a binding rate constant (ka), a dissociation rate constant (kd), and a dissociation constant (KD; KD=kd/ka) were calculated using a 1:1 binding model.

SIRPA_V2_IgV = biological target: T2, SIRPA_V2_IgV (human); assay: SPR Biacore T200, antibody captured on anti-human IgG (Fc), SIRPA_V2_IgV as analyte (0.25 to 16 nM), 1:1 model
T2 construct: Secreted recombinant protein; The crystal model held residues 33 to 143 of human SIRPA Variant 2
Procedure: as §1

human SIRPA_V1 protein = biological target: T3, human SIRPA_V1 protein (human, UniProt P78324 31-504); assay: blocking cell-based ELISA: peroxidase-labeled CD47-Fc (1 µg/mL) on 293α cells expressing SIRPA_V1
T3 construct: Expressed on 293α cells from pcDNA3.2 V5-DEST or pFLAG V5-DEST (FLAG-tagged) vectors; also called human SIRPA Variant 1; hSIRPA V1
Procedure: (§2) After the culture supernatant of the human SIRPA_V1 or V2 expression vector-introduced 293 cells prepared in Example 9)-1 was removed, 50 μL per well of various anti-SIRPA antibodies or various control Human IgG diluted with 5% FBS-containing PBS to a final concentration of 0 to 10,000 ng/ml was added to each of pcDNA3.2 V5-DEST-SIRPA_V1 or V2-introduced 293α cells, immediately followed by addition of 50 µL per well of peroxidase-labeled CD47-Fc prepared with 5% FBS-containing PBS at 1 μg/mL, and the mixture was allowed to stand at 4° C. for one hour. Thereafter, the SIRPA-CD47 binding inhibitory activity was evaluated in the same manner as in 1)-6-3.

human SIRPA_V2 protein = biological target: T4, human SIRPA_V2 protein (human, UniProt P78324 31-504); assay: blocking cell-based ELISA: peroxidase-labeled CD47-Fc (1 µg/mL) on 293α cells expressing SIRPA_V2
T4 construct: Expressed on 293α cells from pcDNA3.2 V5-DEST or pFLAG V5-DEST (FLAG-tagged) vectors; also called human SIRPA Variant 2; ECD variant (full-length, amino acids 1 to 504)
Procedure: as §2

human SIRPB = biological target: T5, human SIRPB (human, UniProt O00241 30-398); assay: flow cytometry on CHO-K1 cells expressing FLAG-tagged human SIRPB; PE anti-human IgG; MFI standardized to secondary antibody alone
T5 construct: whole, on cells; FLAG-tagged (pFLAG V5-DEST), on CHO-K1 cells; also called SIRPβ1; signal regulatory protein β1
Procedure: SIRPβ1 (signal regulatory protein β1: the amino acid sequence thereof is published as RefSeq accession number NP_006056) and SIRPγ (signal regulatory protein γ: the amino acid sequence thereof is published as RefSeq accession number NP_061026) are molecules belonging to the SIRPA family. In the present invention, “SIRPα” may be referred to as “SIRPA,” “SIRPβ1” may be referred to as […] and “SIRPγ” may be referred to as “SIRPG.” CHO-K1 cells were prepared in a 10% FBS-containing Ham's F-12K medium at 3.3×10⁵ cells/mL and cultured overnight at 37° C. under a 5% CO₂ condition. pFLAG V5-DEST-human SIRPβ, pFLAG V5-DEST-human SIRPG, or pFLAG V5-DEST was introduced into the cells using Lipofectamine LTX (Invitrogen), and cells were cultured in a 10% FBS-containing Ham's F-12K medium at 37° C. under a 5% CO₂ condition for 24 hours. The obtained introduced cells were collected and seeded on a 96-well plate. After the culture supernatant was removed, 100 μL per well of various anti-human SIRPA antibodies or various control human IgG was added to each of various gene introduced cells at a final concentration of 0 to 10,000 ng/mL, and the mixture was allowed to stand at 4° C. for 25 minutes. After the mixture was centrifuged, the supernatant was removed, and cells were washed twice with 5% FBS-containing PBS. After the mixture was centrifuged, the supernatant was removed, 50 μL per well of a 1/400 diluted solution of PE Mouse anti-Human IgG antibody (BioLegend) was added, and the mixture was allowed to stand at 4° C. for 25 minutes. After the mixture was centrifuged, the supernatant was removed, and cells were washed twice with 5% FBS-containing PBS.
(§3) After the mixture was centrifuged, and the supernatant was removed, cells were suspended in 100 μL per well of 1× BD Stabilizing Fixative (Becton Dickinson), and the cell count was measured by flow cytometry (FACS Canto II: Becton Dickinson). For data analysis, FlowJo (TreeStar) was used. Cells were characterized by detecting forward scattered (FSC) light and side-scattered (SSC) light, and then the mean fluorescence intensity of PE was calculated. Binding of various antibodies to the family molecules was calculated by standardizing the fluorescence intensity using the mean fluorescence intensity of a sample in which the secondary antibody alone was allowed to react.

human SIRPG = biological target: T6, human SIRPG (human, UniProt Q9P1W8 29-387); assay: flow cytometry on CHO-K1 cells expressing FLAG-tagged human SIRPG; PE anti-human IgG; MFI standardized to secondary antibody alone
T6 construct: whole, on cells; FLAG-tagged (pFLAG V5-DEST), on CHO-K1 cells; also called SIRPγ; signal regulatory protein γ
Procedure: SIRPβ1 (signal regulatory protein β1: the amino acid sequence thereof is published as RefSeq accession number NP_006056) and SIRPγ (signal regulatory protein γ: the amino acid sequence thereof is published as RefSeq accession number NP_061026) are molecules belonging to the SIRPA family. In the present invention, “SIRPα” may be referred to as “SIRPA,” “SIRPβ1” may be referred to as […] and “SIRPγ” may be referred to as “SIRPG.” CHO-K1 cells were prepared in a 10% FBS-containing Ham's F-12K medium at 3.3×10⁵ cells/mL and cultured overnight at 37° C. under a 5% CO₂ condition. pFLAG V5-DEST-human SIRPβ, pFLAG V5-DEST-human SIRPG, or pFLAG V5-DEST was introduced into the cells using Lipofectamine LTX (Invitrogen), and cells were cultured in a 10% FBS-containing Ham's F-12K medium at 37° C. under a 5% CO₂ condition for 24 hours. The obtained introduced cells were collected and seeded on a 96-well plate. After the culture supernatant was removed, 100 μL per well of various anti-human SIRPA antibodies or various control human IgG was added to each of various gene introduced cells at a final concentration of 0 to 10,000 ng/mL, and the mixture was allowed to stand at 4° C. for 25 minutes. After the mixture was centrifuged, the supernatant was removed, and cells were washed twice with 5% FBS-containing PBS. […]
as §3, with “For data analysis, FlowJo (TreeStar) was used.” left out

mouse SIRPA BALB/c = biological target: T7, mouse SIRPA BALB/c (mouse (BALB/c), UniProt P97797 35-513); assay: cell-based ELISA, transfected 293α cells
T7 construct: FLAG-tagged (pFLAG V5-DEST), on 293α cells
T7 chain: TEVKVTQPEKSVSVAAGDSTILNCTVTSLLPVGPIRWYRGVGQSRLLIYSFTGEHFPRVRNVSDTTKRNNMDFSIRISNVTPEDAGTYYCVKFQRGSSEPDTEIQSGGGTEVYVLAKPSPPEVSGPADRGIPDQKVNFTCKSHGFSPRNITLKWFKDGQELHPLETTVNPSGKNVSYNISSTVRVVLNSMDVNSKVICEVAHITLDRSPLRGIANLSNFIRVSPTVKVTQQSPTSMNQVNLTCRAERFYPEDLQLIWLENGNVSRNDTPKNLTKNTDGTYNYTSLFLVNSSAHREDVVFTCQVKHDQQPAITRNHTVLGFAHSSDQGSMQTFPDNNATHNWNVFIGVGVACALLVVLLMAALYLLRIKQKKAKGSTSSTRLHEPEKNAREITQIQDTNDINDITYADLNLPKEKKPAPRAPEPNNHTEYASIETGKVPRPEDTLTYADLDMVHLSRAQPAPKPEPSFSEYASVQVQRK
Procedure: (§4) After the culture supernatant of 293α cells into which the pFLAG V5-DEST-monkey SIRPA or pFLAG V5-DEST-mouse SIRPA expression vector was introduced and the pFLAG V5-DEST-introduced 293α cells prepared in Example 1)-5-2 was removed, binding to monkey or mouse SIRPA was evaluated in the same manner as for the binding activity of human SIRPA.

mouse SIRPA_C57BL/6 = biological target: T8, mouse SIRPA_C57BL/6 (mouse (C57BL/6), UniProt P97797 32-513); assay: cell-based ELISA, transfected 293α cells
T8 construct: FLAG-tagged (pFLAG V5-DEST), on 293α cells
T8 sequence: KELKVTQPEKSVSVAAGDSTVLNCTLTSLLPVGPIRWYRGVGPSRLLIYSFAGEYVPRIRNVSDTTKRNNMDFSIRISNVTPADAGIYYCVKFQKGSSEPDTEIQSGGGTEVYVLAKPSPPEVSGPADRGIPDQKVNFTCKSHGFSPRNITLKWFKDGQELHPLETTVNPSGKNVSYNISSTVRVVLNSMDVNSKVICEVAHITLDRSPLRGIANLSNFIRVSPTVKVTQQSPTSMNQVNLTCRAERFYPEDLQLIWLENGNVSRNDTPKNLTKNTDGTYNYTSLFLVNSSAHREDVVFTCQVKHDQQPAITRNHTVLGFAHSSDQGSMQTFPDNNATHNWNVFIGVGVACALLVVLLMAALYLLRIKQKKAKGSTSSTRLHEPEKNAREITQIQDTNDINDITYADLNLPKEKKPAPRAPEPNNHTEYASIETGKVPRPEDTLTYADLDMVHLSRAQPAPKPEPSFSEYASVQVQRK
Procedure: as §4

mouse SIRPA_129 = biological target: T9, mouse SIRPA_129 (mouse (129), UniProt P97797 32-513); assay: cell-based ELISA, transfected 293α cells
T9 construct: FLAG-tagged (pFLAG V5-DEST), on 293α cells; also called 129sv
T9 chain: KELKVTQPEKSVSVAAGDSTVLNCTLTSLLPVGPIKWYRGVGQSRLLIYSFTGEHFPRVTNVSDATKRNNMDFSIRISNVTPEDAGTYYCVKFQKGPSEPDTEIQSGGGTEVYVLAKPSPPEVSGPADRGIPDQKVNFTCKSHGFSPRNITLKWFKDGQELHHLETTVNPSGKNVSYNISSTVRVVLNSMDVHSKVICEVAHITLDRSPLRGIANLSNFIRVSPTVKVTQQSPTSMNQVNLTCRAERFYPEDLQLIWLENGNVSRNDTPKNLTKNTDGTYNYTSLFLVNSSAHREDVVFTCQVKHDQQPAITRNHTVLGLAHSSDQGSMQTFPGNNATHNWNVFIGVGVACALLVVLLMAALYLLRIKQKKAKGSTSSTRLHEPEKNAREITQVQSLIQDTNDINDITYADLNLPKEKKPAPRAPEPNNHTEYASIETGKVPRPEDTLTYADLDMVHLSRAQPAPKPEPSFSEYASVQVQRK
Procedure: as §4

mouse SIRPA_NOD = biological target: T10, mouse SIRPA_NOD (mouse (NOD), UniProt P97797 32-513); assay: cell-based ELISA, transfected 293α cells
T10 construct: FLAG-tagged (pFLAG V5-DEST), on 293α cells; also called NOD SCID
T10 chain: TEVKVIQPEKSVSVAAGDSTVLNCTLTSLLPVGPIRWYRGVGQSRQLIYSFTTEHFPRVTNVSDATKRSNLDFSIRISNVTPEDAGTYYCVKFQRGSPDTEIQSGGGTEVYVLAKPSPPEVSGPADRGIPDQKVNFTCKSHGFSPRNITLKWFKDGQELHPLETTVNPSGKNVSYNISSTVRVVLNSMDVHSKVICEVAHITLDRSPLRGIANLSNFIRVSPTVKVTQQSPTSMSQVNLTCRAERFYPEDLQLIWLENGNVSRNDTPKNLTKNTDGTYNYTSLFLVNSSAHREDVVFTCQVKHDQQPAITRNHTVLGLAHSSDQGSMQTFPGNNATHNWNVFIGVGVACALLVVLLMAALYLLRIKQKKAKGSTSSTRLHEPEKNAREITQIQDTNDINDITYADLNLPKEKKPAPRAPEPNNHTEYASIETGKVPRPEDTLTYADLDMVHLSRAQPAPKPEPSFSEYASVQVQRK
Procedure: as §4

T4 sequence (P78324 other isoform, or with tags, fused parts or gaps limits assumed): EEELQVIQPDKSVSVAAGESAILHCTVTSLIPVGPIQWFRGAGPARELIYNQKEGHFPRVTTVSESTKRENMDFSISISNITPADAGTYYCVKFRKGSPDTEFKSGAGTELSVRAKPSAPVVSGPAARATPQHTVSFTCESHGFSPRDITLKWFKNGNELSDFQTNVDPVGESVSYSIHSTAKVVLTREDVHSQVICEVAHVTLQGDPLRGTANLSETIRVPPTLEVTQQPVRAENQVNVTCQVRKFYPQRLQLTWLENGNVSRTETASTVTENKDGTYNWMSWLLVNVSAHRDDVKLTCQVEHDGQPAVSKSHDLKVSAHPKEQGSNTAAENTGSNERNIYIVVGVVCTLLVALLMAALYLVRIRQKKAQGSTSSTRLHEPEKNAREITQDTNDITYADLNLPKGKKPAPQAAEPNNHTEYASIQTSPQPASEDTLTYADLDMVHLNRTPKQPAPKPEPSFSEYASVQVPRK
T2 sequence (chain, as listed by the source limits assumed): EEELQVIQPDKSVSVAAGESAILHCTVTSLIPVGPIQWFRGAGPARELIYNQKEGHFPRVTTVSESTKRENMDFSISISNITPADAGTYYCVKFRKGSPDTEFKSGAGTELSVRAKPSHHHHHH
T6 sequence (Q9P1W8 29-387): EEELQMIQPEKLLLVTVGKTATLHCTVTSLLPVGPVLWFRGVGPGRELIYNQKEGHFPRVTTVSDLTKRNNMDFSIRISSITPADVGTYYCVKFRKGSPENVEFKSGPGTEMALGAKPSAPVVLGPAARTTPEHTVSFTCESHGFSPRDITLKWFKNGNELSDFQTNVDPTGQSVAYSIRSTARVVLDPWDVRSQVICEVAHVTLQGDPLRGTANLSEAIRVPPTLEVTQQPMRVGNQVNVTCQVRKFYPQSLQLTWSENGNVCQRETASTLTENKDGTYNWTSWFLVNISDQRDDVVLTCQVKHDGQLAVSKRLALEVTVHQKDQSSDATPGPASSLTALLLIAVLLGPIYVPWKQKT
T1 sequence (P78324 other isoform, or with tags, fused parts or gaps limits assumed): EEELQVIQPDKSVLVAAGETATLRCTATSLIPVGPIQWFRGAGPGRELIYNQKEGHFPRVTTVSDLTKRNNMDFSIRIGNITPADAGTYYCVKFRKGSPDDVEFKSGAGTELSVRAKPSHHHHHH
T3 sequence (P78324 31-504 limits assumed): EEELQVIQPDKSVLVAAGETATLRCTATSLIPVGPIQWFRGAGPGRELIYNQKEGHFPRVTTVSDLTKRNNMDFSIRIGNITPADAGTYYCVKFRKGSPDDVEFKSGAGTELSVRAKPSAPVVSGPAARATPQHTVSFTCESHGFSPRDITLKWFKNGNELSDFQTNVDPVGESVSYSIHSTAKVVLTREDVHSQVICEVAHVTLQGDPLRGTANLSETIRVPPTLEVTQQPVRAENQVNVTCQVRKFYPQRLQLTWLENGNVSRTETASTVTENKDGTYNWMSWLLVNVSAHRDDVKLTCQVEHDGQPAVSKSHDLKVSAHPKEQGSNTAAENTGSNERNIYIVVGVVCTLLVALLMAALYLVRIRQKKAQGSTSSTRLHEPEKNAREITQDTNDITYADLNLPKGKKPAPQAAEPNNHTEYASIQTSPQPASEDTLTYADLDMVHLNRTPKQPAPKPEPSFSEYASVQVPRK
T5 sequence (O00241 30-398): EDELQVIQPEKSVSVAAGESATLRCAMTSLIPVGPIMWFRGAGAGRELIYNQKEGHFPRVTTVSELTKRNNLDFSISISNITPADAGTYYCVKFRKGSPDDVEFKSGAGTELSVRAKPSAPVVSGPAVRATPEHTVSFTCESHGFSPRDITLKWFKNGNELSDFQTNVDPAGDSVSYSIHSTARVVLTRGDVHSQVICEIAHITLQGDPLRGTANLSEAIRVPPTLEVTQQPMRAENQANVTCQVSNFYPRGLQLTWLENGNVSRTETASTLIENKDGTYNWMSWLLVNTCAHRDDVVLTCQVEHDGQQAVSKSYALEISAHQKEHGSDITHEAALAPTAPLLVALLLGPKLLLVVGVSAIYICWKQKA

Kd (SIRPA_V1_IgV): 2.55 nM
Kd (SIRPA_V2_IgV): 4.46 nM
IC50 (human SIRPA_V1 protein): 2.24 µg/mL
IC50 (human SIRPA_V2 protein): 2.19 µg/mL
binding result (human SIRPB): binds
EC50 (read off the curve) (human SIRPG): ~0.03 µg/mL
B1: KWAR23 (antibody, human IgG4 S228P, kappa, V domains shown)
VH: EVQLQQSGAELVKPGASVKLSCTASGFNIKDYYIHWVQQRTEQGLEWIGRIDPEDGETKYAPKFQDKATITADTSSNTAYLHLSSLTSEDTAVYYCARWGAYWGQGTLVTVSA
VL: QIVLTQSPAIMSASPGEKVTLTCSASSSVSSSYLYWYQQKPGSSPKLWIYSTSNLASGVPARFSGSGSGTSYSLTISSMEAEDAASYFCHQWSSYPRTFGAGTKLELKR
notes: IgG4Pro heavy chain; also called KWAR23_hG4Pro / KWAR23_hK

binding result (mouse SIRPA BALB/c): no binding
binding result (mouse SIRPA_C57BL/6): no binding
binding result (mouse SIRPA_129): no binding
binding result (mouse SIRPA_NOD): no binding
B2: rat anti-human SIRPA monoclonal antibody D13 (antibody, V domains shown)
VH: EVQLVESGGGLVQPGRSLKLSCLASGFTFSDYGMIWVRQAPGKGLEWVASISSSSSYIYYADTVKGRFTISRENAKNTLFLHMTSLRSEDTALYYCARRYYGFNYPFDYWGQGVMVTVSS
VL: DTVLTQSPALAVSLGQRVTISCGASKSVRTYMHWYQQKSGQQPKLLIYSASNLEAGVPSRFSGSGSGTDFTLTIDPVEADDIANYYCQQSNEPPYTFGAGTKLELK
notes: Rat IgG1/kappa purified from hybridoma
